This passage reports lytic activity against Hep3B cells results from patent US20210371542A1.

This test deals with human glypican-3 (GPC3) on the cell surface (human), P51654. As to the kind of experiment: cell-based or functional assay.

B1: CAR.hYP7 (GPC3-targeted chimeric antigen receptor with humanized YP7 scFv, CD8α hinge and TM, 4-1BB, CD3ζ) (protein)
chain: HMEVQLVESGGGLVQPGGSLRLSCAASGFTFNKNAMNWVRQAPGKGLEWVGRIRNKTNNYATYYADSVKARFTISRDDSKNSLYLQMNSLKTEDTAVYYCVAGNSFAYWGQGTLVTVSAGGGGSGGGGSGGGGSDIVMTQSPDSLAVSLGERATINCKSSQSLLYSSNQKNYLAWYQQKPGQPPKLLIYWASSRESGVPDRFSGSGSGTDFTLTISSLQAEDVAVYYCQQYYNYPLTFGQGTKLEIKTSTTTPAPRPPTPAPTIASQPLSLRPEACRPAAGGAVHTRGLDFACDIYIWAPLAGTCGVLLLSLVITKRGRKKLLYIFKQPFMRPVQTTQEEDGCSCRFPEEEEGGCELRVKFSRSADAPAYQQGQNQLYNELNLGRREEYDVLDKRRGRDPEMGGKPRRKNPQEGLYNELQKDKMAEAYSEIGMKGERRRGKGHDGLYQGLSTATKDTYDALHMQALPPR
As for B1, the lytic activity against Hep3B cells at E:T ratio of 5 (HCC patient-derived T cells) was in the range of 30 to 70%; the lytic activity against Hep3B cells at E:T ratio of 5 (HCC patient-derived T cells), average was 50%; the lytic activity against Hep3B cells at E:T ratio of 5 (healthy donor-derived T cells), average came out at 90%.
